Data reported in the DeepSol protein solubility set.

Test: soluble on expression in E. coli; label from the status in PepcDB or PDB records

Q: Which “soluble on expression in E. coli” value does the source give for “MSLTETLDNTQDLLMDVDKYNFWEVEGEDAAGEVNSKDMDMVGVDEKSGAPVFRLTDNNDEQPLNENENGNFKFKMNTIATENMAYLTEKDKYKLYPSKVPGYDNSREYSSYVSKVFELYNDLDEHRVYSAPTIGIINKSYAREHNYVLNVAFESFVTELNFFIESIKNDPNLINRVLQLEESITILNCLKTIHFTFDSLQNESDSREQFVNSLIDWVNRSDGEPKEEYIEQIFTRNDNIEVFNTLQFWKLVNKLLLRGLFEQALGCLERSKIMDFLKSQCEVSANILGDAIALLEQYPIDSSETFREWKFMVLGLQQTYSNSNTKITGELRDYIEDTLLLIGGNQSKLLQYSSTWYEAYASFYLYYIPTLELSHDYLELALSTHPLDLTKNWEQACVNIINNKIYSILPVLESLDLCTAATTAALCEAKGILENFLDDDTKTFKGNVDKLVTPVHGMASYLLNQFAFELCSQEEKTLWPVAIGLISISPFESASVKRTTISEVLPRFPFSTNDDIEWMLAVCAKWRLPKIAKKIYKILGSKLQAEGNVIESMTNFSKAGEFDIVKNEGHHHHHH” here?
A: Its value is “soluble”.

Q: With “MSPSSATPARCSIARTLELLGDKWTLLIVRDAFWGHSRFSEFTRSLGVASDVLTARLAMLVDEGILERRAYRQEGSRERLEYVLTEKGKQLHVVIGALGQFGRDHLPRPGSTSPEYSDETTGEAVSLAFVTDDGRRVSASTLHVQQGTPAPAADPQG” as the sequence, how does the “soluble on expression in E. coli” value read?
A: Its value is “not soluble”.

Q: Which “soluble on expression in E. coli” value does the source give for “MGSDKIHHHHHHMASPGSGFWSFGSEDGSADPENPGTARAWCQVAQKFTGGIGNKLCALLYGDSGKPAEGGGSVTSRAATGKVACTCDQKPCNCPKGDVNYAFLHATDLLPACDGERPTLAFLQDVMNILLQYVVKSFDRSTKVIDFHYPNELLQEYNWELADQPQNLEEILTHCQTTLKYAIKTGHPRYFNQLSTGLDMVGLAADWLTSTANTNMFTYEIAPVFVLLEYVTLKKMREIIGWPGGSGDGIFSPGGAISNMYAMLIARYKMFPEVKEKGMAAVPRLIAFTSEHSHFSLKKGAAALGIGTDSVILIKCDERGKMIPSDLERRILEVKQKGFVPFLVSATAGTTVYGAFDPLLAVADICKKYKIWMHVDAAWGGGLLMSRKHKWKLSGVERANSVTWNPHKMMGVPLQCSALLVREEGLMQSCNQMHASYLFQQDKHYDLSYDTGDKALQCGRHVDVFKLWLMWRAKGTTGFEAHIDKCLELAEYLYTIIKNREGYEMVFDGKPQHTNVCFWFVPPSLRTLEDNEERMSRLSKVAPVIKARMMEYGTTMVSYQPLGDKVNFFRMVISNPAATHQDIDFLIEEIERLGQDL” here?
A: The value was “not soluble”.

Q: For “MGSDKIHHHHHHMNFCRILLKPLKKNEALSGYSAEGLHYLTDNKHFNPELPFSRQEFITVKPQKQQGMSISGFQPKLQLIIKDEHFDSVNQQGNYILKPSPEEYPFLAENEHATMRIMKELGFDVPENGLVSFAGEQNHKEFAFVITRFDRDKQQKPMHQEQLDGAMNIRDKYGKIGADNEQYVSYEQIAKFILQHTENHLAQQREIFRRIIYAYLLGNNDLHLRNFSFIYPKNSHPKLAPIYDFVSVSPYPEIFNSTLLALPLLAREEGNATLAKGFNTQYGEYIGDDFVEFGENIGLNKNVIIQKLIPEIIQEKEKVEQIYSQSFMPQPHIDCVLKTYRKRLALLNLLNEPEL”, which “soluble on expression in E. coli” value is on record?
A: Its value is “not soluble”.

Q: With “MGSDKIHHHHHHMRITSIFLFTIIIFGGLSCSNDDSLIHNKTKGILEKYPEPTVTITAHNHIPFLAKNILEEKAITKSVNIISDIAWANGFGRTITARSDEMVIPDNMNRYIYPGSILEASSIAETRFTPIPVKNNPVHVSVSFPAKKVGGTIKEPSLLNIRQFVMDLMQQNNIGKQSATLSFDVQKFVSYDELKMTFGSNENTGLLFWGTSSAQYQNKYRIIRSSGLCIKFIQKYFTLDMDIPSNGLISGTIPGGYSPVYVSSIAYGRIGILTLETNYDYEKANKLVKETFNSLFINKNNTLTKEQEAFFNSAEMKVFIAGGSGVTGVKTIGGIKEFTNYITEGGEFSASSPGKPIFCSFANYSDDSPYRINFKIDIDSDPVYARLEYDITKDVSGGNVKSWYTDANVYLRFYADKACSIKTIAQNYIGFNINRLILQQYVGPNYSVSKAREVKLDQNLTFHNQTKGIEYPIAYGHRMTETIGTTYLDRGNWTNDHFYLRAGKFYQVRPPINMKYTCFIDYHNQNEYDCSDFE” as the sequence, how does the “soluble on expression in E. coli” value read?
A: Its value is “not soluble”.

Q: For “MKSIIIAAPHSGSGKTTITLGIMECLKRRGLTVAPFKVGPDFIDPGYHRLICGRPSVNLDGWMCGGDFVQETFFHHAAGADIAVVEGVMGLFDGIGGVSDEGSTAEVAKLLGGPVVLVADAKGQARSVAALVKGFADFDPEVRVVGVIFNNVASDAHGRILREAVESHLPDVRVLGCIPRDESLSIPSRHLGLFTVDENPLPAEFLDHLVEVVREHVDLGMLWSVATLQGASDVKRRQDAPRREPVRIGVARDAAFCFVYEDNLRLLREAGAELVEFSPLADRELPEGVAGLYLPGGYPEVFADVLADNTPMKDAVRGAVVGEMPVYAECGGFIYLSRGVTGMRDDLESFNEFVGIFPVATLMLPRRKALGYREVELAADSIIGPVGAMARGHEFHYSEMEAMPPEVERLYRVRRAGIDLGTEGYRHRNCLASYVHIHFGSCPDMAEAFVNHCRNYAQRSHSLEHHHHHH”, which “soluble on expression in E. coli” value is on record?
A: Its value is “soluble”.

Q: Which “soluble on expression in E. coli” value does the source give for “MQGLYIYGEVGRGKTMLMDLFFSCLPQKRKKRAHFNDFMADVHERINIYRQASKDGKTGQKTPILAVVEDLAQEAQVLCFDEFSVTDIADAMVLGRLISALFDKGIFFVATSNVAPDNLYYNGLEHHHHHH” here?
A: The value was “not soluble”.

Q: For “MTRRDNEERVLHAATDTEQSQVTDLRQNVSATPLTDAEVGRLQLLEERATVQVERQGIGQVQVRKVVRERQEMVPVTLTTEVLEIVVTPAAQGTGAQNVGDTQTAAASAAGTTGNGGVSQVLIDGKPLEAGQTYEIPLTEERVQVMRQVVPLSEVVVRRQAQATTHEETVTLRREELEVLDEQGLARIVDEGAALEHHHHHH”, which “soluble on expression in E. coli” value is on record?
A: Its value is “soluble”.

Q: With “MSLTDASFPALPPPLVSLGDLAWDVLAKPDTLLLPGGDTTGRLELSGGGSAANLAVWAARLGAPTTFVGKIGQDRFGELATAELRAEGVRAEVLASAAHPTGVILALIDRRGQRAMLTGQGADWELLPEELPRDVLSSAGHLHLTAWSLFRDPPRAAALEAARIAKAGGATLSLDPGSFQMIQQLGREAFLNIVDALPFDVMFPNDDEARAMSGERDNEAALTWLRARYPRALIALKMDEDGALIEGPQTARVQVPATRDPLVDATGAGDAFGGAFLSQWLRHHDAERAARVAVQVGGWVVSRFGARPPADPDLTRRLASVGADLLTPDPAAAPDPSQDSPEVNEGHHHHHH” as the sequence, how does the “soluble on expression in E. coli” value read?
A: Its value is “soluble”.

Q: With “MGSDKIHHHHHHMNLDHLRYFVALSRTENYTQTAKLLHITQPSLTKAIHSLEAELNIDLFQKAGRSVTLTPAGKVFASDVESALLLLDKSVTNIKRFDQQKAPIRIAALRTLSIKWLPDIAQRFLQLSPHAAVQFQFNTDTGLSPDILNGLRNNKYDVAFCSKMDHFSDIEFFPVAEQTMVCITPTTHPLANRSSINLAETLAYPQITFSQRSGLHPIMQKLFNDCGGQPISAYAVEEDQAIAGLVASGFGIAVVPNMSILQTMPVKIIPLSFPTWQRILYMGTLKHRTPQPAVEEFITFVRDQSKTLSVNNI” as the sequence, how does the “soluble on expression in E. coli” value read?
A: The value was “not soluble”.

Q: For “MSMLSMDGIVAGGGSSSGGGERSFVLEQKMFNTGPQNKALPTVQSSGSSSNHAPIVGESPLGTVSSTMATGDTGRVGNVTYMSSGMLGATQFMPQNSSHPSTSVMMQQVPPQNGGATRSSPTEMQQCMQAMSEDSIEMRDYNSGVHHMHPHQMQMQQQQQHHQQQYNMSYHNHQQQMQQMHYHQQQQQYQQQQAQHHQMYAPQIQQQQQQPQQQSQQQSAQQPQQSSAALQHVNESSNLSSAGSISDREPEQHGGTPQRPTAPQSSTATDKKTRKRRKAGPTEDQATPKQERKITEFMKVGGEVASGNSVARCLLTEYHQNQGSPKRQPAVQQNGSNSYDSQQQQPQMNQHEMQNSYWGVATPSLGVNNRGTPTPTQQQHYSSDSNSNSNQSPPGQGNQSGRMVRTIDEETQTDSSLSQANPQNADEVAKMNRIIEDHRRQIEELNSKNSLERRKNEASKETIKRLLIDKNQIERKALRDKTAADSPRIGCFKTTRTGDSFRDQWVDGWAFAEMDKKTEQINAERNEIASASALLKKRKPLGIGKEPKRPQAVNSQNDSNGMQPSTSSNTNGDDAIFRRPEEPKEIQYQEYIELDEIYKLRREHLRKEETDLSMEKERLEKEKQHHVRELKRASNESASQFNDHRLLHKRYLMLNLLGKGGFSEVWKAFDIEENRYVACKIHHVNKDWKEEKKANYVKHAMREKDIHKSLDHCRIVKQYDLLTIDNHSFCTVLEYVPGNDLDFYLKQNRSISEKEARSIIMQVVSALVYLNEKSTPIIHYDLKPANILLESGNTSGAIKITDFGLSKIMEGESDDHDLGIELTSQFAGTYWYLPPETFIVPPPKITCKVDVWSIGVIFYQCIYGKKPFGNDLTQQKILEYNTIINAREVSFPSKPQVSSAAQDFIRRCLQYRKEDRADVFELAKHELFRPRGAIRASVAGSVSSPSIPRSPSVNREDDNM”, which “soluble on expression in E. coli” value is on record?
A: Its value is “not soluble”.

Q: Which “soluble on expression in E. coli” value does the source give for “MSLVKAISSNLGYPRLGEKREWKRALEKFWNGAISEEELLAETKALRLHALKKQQEKGIDLIPVGDFSFYDQVLDTSVTFGIIPKRFQHDGGKVSLNTYFDIARGKSDAVASEMTKWFNTNYHYIVPELADADPKVLDNRALYYYEEAKKELGIEGKPVLVGPVTYLKLGKGNDAENFEALLDKFIPAYVEILKELERAGAKWVQIDEPYLATSFDKSEIKLFEKVYQAFQTAVPNLKIELQTYFESLDYYEEVVNLPVAAIGIDFVHDHGDSLEALKAHGFPEDKYLAAGVIDGRNVWRSDLDAKLSLLTEIADYVTDGKLIVQPSNSLLHVPVTKLSEPDLDEVILGGLSFADQKLDEIAILTKALTDGAESVTAELEDARAAVTALNESSHRNNLEVQEAIANLGNVRVDRELPFAERIKLQHAWLNLPLFPTTTIGSFPQSPEVRKTRADWLKGNITDAEYNAFIEKETARWIKIQEELDIDVLVHGEFERTDMVEYFGQKLAGFQATKFGWVQSYGSRAVRPPLIYGDVAFTEEITVKESVYAQSLTKRPVKGMLTAPVTIINWSFVRDDVPESVVANQVGLALRKEVEALERNGIKVIQVDEPALREGLPLKQARWEKYLNDAVYSFKLTTASVQNDTQIHTHMCYSDFDDIIDTISALDADVISIETSRSHGEIISTFEEVTYDKEIGLGVYDIHSPRVPTVTEIQDNIRRALRAIDAKQFWINPDCGLKTRKEPETIAALQDMIKATKEVRAEYQVLEKEGHHHHHH” here?
A: Its value is “soluble”.

Q: For “MSLIDKTKLLQNFQFHLPTGYHKESLARLNFMKGKPLRDAAVLIGFVDRPEGLQVILTKRAEHLRHHPGQISFPGGKFEPEDIHLVNTALRETNEEVGIEDKHIHVFGQLPKLPTISQFNVTPFLAFISPDYKTHIDPNEVESVFEVPANHILNPNKLYSSKFELKRSSHRVFAIPYRQHFIWGMTAQIIESMQKHIISGEGHHHHHH”, which “soluble on expression in E. coli” value is on record?
A: Its value is “soluble”.

Q: For “NDPDADRFAVAARKADGEYQMLTGDQVGSLFGHYLLSQTDAHRQLVGNTIVSSSLLSKIAAAHGARYYQTLTGFKWLTNVAMQEQTEQHQFLFAYEEALGYTIGSTVWDKDGLSALVAFAQLAAELNAQGKTVWDQLEALYRQHGLHVN”, which “soluble on expression in E. coli” value is on record?
A: Its value is “not soluble”.

Q: For “MEAEEIIGLLKKGDLEKAKDALSKEIDNLSDEELKEILEVAESVAKEKEDIELLKLVVYYYAEFFGIDKLEEFEGIAKEKGYEGLMHLADLYSLLGYPEKALDIYRELLKTDLIKEKEHIGEIYYGIATIHDELQEYDKALEAINEAVKAFKESNNVEKLHQAEVYRAYITFENGDRDKAKEILAGLLPHVTNREIKAQIHLVFKEIFEDEENYEAAIQESLYSLIEGIDTEVFDLAFDGLIDLIWELILEDKFEEIYKSMPMFKVAIPSLKDFFEGVRRIAMYREGKIGREEVSEILMKVKDERLVSILEFLGEAEV”, which “soluble on expression in E. coli” value is on record?
A: The value was “soluble”.
